Paper PMC12135040, “Long-Acting Human PASylated Leptin Reaches the Murine Central Nervous System and Offers Potential for Optimized Replacement Therapy” (Molecular Pharmaceutics, 2025)
Like-named read-outs stand apart in the source and are kept apart here.

T1: recombinant LepR-Fc fusion protein (human, UniProt P48357 22-839)
T1 sequence (looked up): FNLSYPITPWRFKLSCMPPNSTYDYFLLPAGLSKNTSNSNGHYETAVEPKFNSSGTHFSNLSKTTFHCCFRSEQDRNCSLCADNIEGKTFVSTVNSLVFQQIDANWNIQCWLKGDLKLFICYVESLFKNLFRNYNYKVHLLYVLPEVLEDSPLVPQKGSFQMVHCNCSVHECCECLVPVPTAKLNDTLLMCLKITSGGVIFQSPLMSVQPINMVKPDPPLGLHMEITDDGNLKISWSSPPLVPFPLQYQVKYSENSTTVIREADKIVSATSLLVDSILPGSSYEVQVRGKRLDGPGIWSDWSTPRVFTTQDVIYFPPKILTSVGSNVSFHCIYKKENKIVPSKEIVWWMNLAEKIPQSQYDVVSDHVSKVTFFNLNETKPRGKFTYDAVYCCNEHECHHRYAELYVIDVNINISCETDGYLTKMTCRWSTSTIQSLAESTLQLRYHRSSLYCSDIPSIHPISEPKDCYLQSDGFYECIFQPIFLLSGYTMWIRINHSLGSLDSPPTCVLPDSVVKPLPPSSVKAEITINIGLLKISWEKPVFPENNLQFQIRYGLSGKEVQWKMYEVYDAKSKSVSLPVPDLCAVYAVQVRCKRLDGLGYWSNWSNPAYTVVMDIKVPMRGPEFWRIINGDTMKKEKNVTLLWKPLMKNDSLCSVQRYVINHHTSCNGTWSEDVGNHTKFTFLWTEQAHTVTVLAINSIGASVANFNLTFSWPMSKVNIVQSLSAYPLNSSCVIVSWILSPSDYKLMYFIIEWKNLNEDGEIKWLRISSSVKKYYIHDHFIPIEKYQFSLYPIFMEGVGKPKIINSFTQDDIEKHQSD

B1: His6-PAS(200)-muLeptin (ligand)
chain: ASPAAPAPASPAAPAPSAPAASPAAPAPASPAAPAPSAPAASPAAPAPASPAAPAPSAPAASPAAPAPASPAAPAPSAPAASPAAPAPASPAAPAPSAPAASPAAPAPASPAAPAPSAPAASPAAPAPASPAAPAPSAPAASPAAPAPASPAAPAPSAPAASPAAPAPASPAAPAPSAPAASPAAPAPASPAAPAPSAPAAVPIQKVQDDTKTLIKTIVTRINDISHTQSVSAKQRVTGLDFIPGLHPILSLSKMDQTLAVYQQVLTSLPSQNVLQIANDLENLRDLLHLLAFSKSCSLPQTSGLQKPESLDGVLEASLYSTEVVALSRLQGSLQDILQQLDVSPEC

What was measured:
[1] = biological target: T1, recombinant LepR-Fc fusion protein
[2] = biological target: T1, recombinant LepR-Fc fusion protein; assay: cell-based or functional assay

Row | Molecule | EC50 of STAT3-responsive dual luciferase reporter in HEK293 cells transiently transfected with human LepRb (whole receptor on cells); leptin 50 fM to 500 nM, 18 h [1] | also measured
1 | PAS(200)-huLeptin (human wild-type leptin, PASylated) (from UniProt P41159 22-167) (ligand) | – | EC50 of STAT3-responsive dual luciferase reporter in HEK293 cells transiently transfected with human LepRb (whole receptor on cells); PASylated leptin 50 fM to 500 nM, 18 h [1]: 1.2 nM
2 | huLeptin^W100E (recombinant, unmodified) (from UniProt P41159 22-167) (ligand) | 0.1 nM | –
3 | huLeptin^W100Q (recombinant, unmodified) (from UniProt P41159 22-167) (ligand) | 0.13 nM | –
4 | human wild-type leptin (recombinant, unmodified) (from UniProt P41159 22-167) (ligand) | 0.1 nM | –
5 | murine leptin (recombinant, unmodified) (from UniProt P41160 22-167) (ligand) | 0.04 nM | –
6 | B1 | – | EC50 of STAT3-responsive dual luciferase reporter in HEK293 cells transiently transfected with human LepRb (whole receptor on cells); PASylated leptin 50 fM to 500 nM, 18 h [2]: 0.16 nM
